# In the supplement of paper PMC9112550, “Optimization of the antimicrobial peptide Bac7 by deep mutational scanning” (BMC Biology, 2022):
# Test system: Escherichia coli TOP10
# Assay: shrunken log2 fold change of peptide-encoding DNA abundance (4.5 h post-induction vs induction); higher = less antimicrobial activity (less host growth inhibition)
# Conditions: time post-induction: 4.5 h; library: site-saturation at positions 5, 18, 19, 20
# 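Also: peptides expressed intracellularly from a pBAD plasmid library in pooled LB shake-flask culture, induced with 0.3% L-arabinose, DNA abundance read by NGS, three biological replicates, DESeq2 with apeglm shrinkage.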
row,Sequence,shrunken log2 fold change
1,RRIRQRPPRLPRPRPRPKKGPRP,0.124
2,RRIRPRPPRLPRPRPRPRGVPRP,0.347
3,RRIRPRPPRLPRPRPRPLSDPRP,-0.0446
4,RRIRWRPPRLPRPRPRPYPAPRP,-0.0239
5,RRIRFRPPRLPRPRPRPHRGPRP,0.0928
6,RRIRTRPPRLPRPRPRPLHKPRP,0.0334
7,RRIRMRPPRLPRPRPRPLMHPRP,0.341
8,RRIRVRPPRLPRPRPRPEILPRP,-0.0486
9,RRIRMRPPRLPRPRPRPNYYPRP,-0.576
10,RRIRMRPPRLPRPRPRPNMCPRP,0.0492
11,RRIRTRPPRLPRPRPRPGVLPRP,0.08
12,RRIRTRPPRLPRPRPRPPHTPRP,0.0399
13,RRIRTRPPRLPRPRPRPTWMPRP,-0.0339
14,RRIRFRPPRLPRPRPRPFTMPRP,-0.817
15,RRIRSRPPRLPRPRPRPDPIPRP,-0.0376
16,RRIRQRPPRLPRPRPRPSFYPRP,-0.653
17,RRIRPRPPRLPRPRPRPKMWPRP,0.299
18,RRIRLRPPRLPRPRPRPYILPRP,-0.317
19,RRIRTRPPRLPRPRPRPPCNPRP,-0.0091
20,RRIRTRPPRLPRPRPRPKYCPRP,-0.0743
21,RRIRMRPPRLPRPRPRPDYFPRP,-0.121
22,RRIRLRPPRLPRPRPRPNGFPRP,-0.27
23,RRIRIRPPRLPRPRPRPHMNPRP,-0.845
24,RRIRGRPPRLPRPRPRPRMSPRP,0.28
25,RRIRVRPPRLPRPRPRPGEQPRP,-0.0154

row,Sequence,shrunken log2 fold change
1,RRIRVRPPRLPRPRPRPGRGPRP,0.632
2,RRIRLRPPRLPRPRPRPRWAPRP,0.145
3,RRIRERPPRLPRPRPRPKDLPRP,0.167
4,RRIRSRPPRLPRPRPRPWASPRP,-0.114
5,RRIRNRPPRLPRPRPRPPSPPRP,0.538
6,RRIRARPPRLPRPRPRPIIIPRP,-0.235
7,RRIRHRPPRLPRPRPRPAALPRP,-0.0796
8,RRIRIRPPRLPRPRPRPSGHPRP,-0.397
9,RRIRIRPPRLPRPRPRPWHNPRP,-0.169
10,RRIRIRPPRLPRPRPRPSVQPRP,-0.51
11,RRIRIRPPRLPRPRPRPHCHPRP,-0.394
12,RRIRTRPPRLPRPRPRPLRWPRP,0.856
13,RRIRNRPPRLPRPRPRPPEAPRP,0.0101
14,RRIRWRPPRLPRPRPRPPDSPRP,0.0564
15,RRIRERPPRLPRPRPRPWPLPRP,0.0261
16,RRIRNRPPRLPRPRPRPKVVPRP,0.0279
17,RRIRHRPPRLPRPRPRPSRWPRP,0.102
18,RRIRKRPPRLPRPRPRPGCEPRP,1.31
19,RRIRTRPPRLPRPRPRPESWPRP,0.809
20,RRIRFRPPRLPRPRPRPLMLPRP,-0.282
21,RRIRSRPPRLPRPRPRPSHEPRP,0.0867
22,RRIRMRPPRLPRPRPRPMSNPRP,0.0851
23,RRIRCRPPRLPRPRPRPMKPPRP,0.0236
24,RRIRARPPRLPRPRPRPRVEPRP,0.187
25,RRIRHRPPRLPRPRPRPHCFPRP,-0.312

row,Sequence,shrunken log2 fold change
1,RRIRARPPRLPRPRPRPDMCPRP,-0.335
2,RRIRCRPPRLPRPRPRPVACPRP,-0.0888
3,RRIRDRPPRLPRPRPRPYSRPRP,-0.00164
4,RRIRRRPPRLPRPRPRPPVIPRP,-0.139
5,RRIRKRPPRLPRPRPRPMIYPRP,-0.718
6,RRIRYRPPRLPRPRPRPQQAPRP,-0.0122
7,RRIRPRPPRLPRPRPRPGDYPRP,-0.0215
8,RRIRPRPPRLPRPRPRPYDRPRP,-0.319
9,RRIRMRPPRLPRPRPRPGQEPRP,0.605
10,RRIRPRPPRLPRPRPRPTKEPRP,0.193
11,RRIRPRPPRLPRPRPRPLTLPRP,0.121
12,RRIRERPPRLPRPRPRPFVFPRP,-0.379
13,RRIRHRPPRLPRPRPRPFIWPRP,-0.162
14,RRIRIRPPRLPRPRPRPWHTPRP,-0.113
15,RRIRVRPPRLPRPRPRPQQNPRP,-0.112
16,RRIRLRPPRLPRPRPRPFILPRP,-0.978
17,RRIRDRPPRLPRPRPRPKVAPRP,0.458
18,RRIRIRPPRLPRPRPRPDCLPRP,0.0966
19,RRIRQRPPRLPRPRPRPWFEPRP,-0.00226
20,RRIRERPPRLPRPRPRPVGLPRP,0.147
21,RRIRSRPPRLPRPRPRPYWMPRP,-0.648
22,RRIRGRPPRLPRPRPRPDWSPRP,0.203
23,RRIRRRPPRLPRPRPRPLFIPRP,-0.27
24,RRIRKRPPRLPRPRPRPIDQPRP,0.122
25,RRIRDRPPRLPRPRPRPFDIPRP,0.289

row,Sequence,shrunken log2 fold change
1,RRIRSRPPRLPRPRPRPFTTPRP,-0.392
2,RRIRVRPPRLPRPRPRPDCSPRP,-0.0973
3,RRIRIRPPRLPRPRPRPRTQPRP,0.106
4,RRIRRRPPRLPRPRPRPVKEPRP,-0.128
5,RRIRTRPPRLPRPRPRPIGNPRP,-0.0759
6,RRIRVRPPRLPRPRPRPHACPRP,0.0734
7,RRIRHRPPRLPRPRPRPTPPPRP,0.391
8,RRIRQRPPRLPRPRPRPKIDPRP,-0.146
9,RRIRGRPPRLPRPRPRPHCGPRP,-0.0798
10,RRIRCRPPRLPRPRPRPWDFPRP,-0.0326
11,RRIRCRPPRLPRPRPRPQDDPRP,0.0976
12,RRIRWRPPRLPRPRPRPTEEPRP,0.12
13,RRIRERPPRLPRPRPRPMQCPRP,-0.211
14,RRIRWRPPRLPRPRPRPCKAPRP,-0.0863
15,RRIRKRPPRLPRPRPRPMSWPRP,5.25
16,RRIRERPPRLPRPRPRPQHEPRP,0.199
17,RRIRVRPPRLPRPRPRPSTKPRP,-0.213
18,RRIRIRPPRLPRPRPRPPEVPRP,-0.173
19,RRIRTRPPRLPRPRPRPQATPRP,0.119
20,RRIRARPPRLPRPRPRPDIRPRP,0.148
21,RRIRARPPRLPRPRPRPLCDPRP,2.32
22,RRIRMRPPRLPRPRPRPSKWPRP,-0.104
23,RRIRYRPPRLPRPRPRPQDQPRP,-0.21
24,RRIRNRPPRLPRPRPRPFFGPRP,0.239
25,RRIRMRPPRLPRPRPRPADVPRP,0.0241

row,Sequence,shrunken log2 fold change
1,RRIRARPPRLPRPRPRPCSMPRP,0.00269
2,RRIRTRPPRLPRPRPRPAKSPRP,-0.055
3,RRIRRRPPRLPRPRPRPYVWPRP,-0.216
4,RRIRSRPPRLPRPRPRPGLVPRP,0.275
5,RRIRERPPRLPRPRPRPCSFPRP,-0.153
6,RRIRKRPPRLPRPRPRPMATPRP,0.329
7,RRIRERPPRLPRPRPRPEGTPRP,-0.0267
8,RRIRQRPPRLPRPRPRPYRNPRP,-0.0521
9,RRIRERPPRLPRPRPRPINNPRP,-0.944
10,RRIRPRPPRLPRPRPRPWPTPRP,0.438
11,RRIRCRPPRLPRPRPRPRFRPRP,0.201
12,RRIRGRPPRLPRPRPRPREYPRP,0.355
13,RRIRSRPPRLPRPRPRPCRCPRP,-0.358
14,RRIRCRPPRLPRPRPRPHDVPRP,-0.314
15,RRIRGRPPRLPRPRPRPSNEPRP,0.131
16,RRIRVRPPRLPRPRPRPNWQPRP,0.108
17,RRIRNRPPRLPRPRPRPAYKPRP,-0.128
18,RRIRFRPPRLPRPRPRPLPHPRP,-0.0994
19,RRIRGRPPRLPRPRPRPHLMPRP,-0.0148
20,RRIRCRPPRLPRPRPRPNEVPRP,-0.153
21,RRIRMRPPRLPRPRPRPGTDPRP,1.19
22,RRIRYRPPRLPRPRPRPMPSPRP,0.0101
23,RRIRKRPPRLPRPRPRPIWRPRP,0.132
24,RRIRLRPPRLPRPRPRPYWRPRP,0.231
25,RRIRCRPPRLPRPRPRPEAKPRP,0.208
